The target in assay [1] is T1, linked peptide (HIV-1, strain  (synthetic …)).
T1 construct: source: synthetic peptide (Genscript)
As to the kind of experiment: BLI; Octet Red; Mabs captured on anti-human IgG Fc biosensors (10 µg/mL), peptides or ES2 as analyte in solution, two-fold dilutions 500 nM to 7.81 nM, PBS pH 7.4, 0.2% Tween 20, 60 s association and 60 s dissociation, no lipid; Langmuir 1:1 fit; also used for the alanine-substituted MPER peptides. Particulars: both partners purified.

Assay [2] addresses T2, wt MPER peptide (HIV-1, strain  (synthetic …)).
T2 construct: source: synthetic peptide (Genscript)
The description is as above. Particulars: both partners purified.

The target of assay [3] is T2, wt MPER peptide. As to the kind of experiment: cell-based or functional assay.
Assay [4] deals with T1, linked peptide. As to the kind of experiment: BLI. Particulars: both partners purified.
Assay [5] deals with T2, wt MPER peptide. As to the kind of experiment: BLI. Particulars: both partners purified.

B1: 2F5 CDRH3 length-altered variant r2 (antibody, V domains shown)
VH: RITLKESGPPLVKPTQTLTLTCSFSGFSLSDFGVGVGWIRQPPGKALEWLAIIYSDDDKRYSPSLNTRLTITKDTSKNQVVLVMTRVSPVDTATYFCAHRRGPTLFGVIARGPVNAMDVWGQGITVTISS
VL: ALQLTQSPSSLSASVGDRITITCRASQGVTSALAWYRQKPGSPPQLLIYDASSLESGVPSRFSGSGSGTEFTLTISTLRPEDFATYYCQQLHFYPHTFGGGTRVDVR
Turning to B1, in assay [1], the Kd came to 55.8 nM, the koff was 0.0085 s⁻¹ and the kon came out at 150000 M⁻¹ s⁻¹. In assay [2], this molecule displayed a Kd of 90.2 nM, a koff of 0.0051 s⁻¹ and a kon of 50000 M⁻¹ s⁻¹. Moreover, in assay [3], the “IC50 of neutralisation of JR-CSF Env-pseudotyped HIV-1, single-cycle infectivity assay on TZM-bl cells” value came out at 98 µg/mL and the “IC50 of neutralisation of JR-FL Env-pseudotyped HIV-1, single-cycle infectivity assay on TZM-bl cells” value came to 111 µg/mL.

B2: 2F5 CDRH3 length-altered variant e2 (antibody, V domains shown)
VH: RITLKESGPPLVKPTQTLTLTCSFSGFSLSDFGVGVGWIRQPPGKALEWLAIIYSDDDKRYSPSLNTRLTITKDTSKNQVVLVMTRVSPVDTATYFCAHRRGPTTGLFGVGPIARGPVNAMDVWGQGITVTISS
VL: ALQLTQSPSSLSASVGDRITITCRASQGVTSALAWYRQKPGSPPQLLIYDASSLESGVPSRFSGSGSGTEFTLTISTLRPEDFATYYCQQLHFYPHTFGGGTRVDVR
Take B2: in assay [1], the Kd was 26.9 nM, the koff came out at 0.0035 s⁻¹ and the kon came out at 130000 M⁻¹ s⁻¹. In assay [2], this molecule yielded a Kd of 463 nM, a koff of 0.0087 s⁻¹ and a kon of 10000 M⁻¹ s⁻¹.

B3: 2F5 CDRH3 length-altered variant r6 (antibody, V domains shown)
VH: RITLKESGPPLVKPTQTLTLTCSFSGFSLSDFGVGVGWIRQPPGKALEWLAIIYSDDDKRYSPSLNTRLTITKDTSKNQVVLVMTRVSPVDTATYFCAHRRGLFGVRGPVNAMDVWGQGITVTISS
VL: ALQLTQSPSSLSASVGDRITITCRASQGVTSALAWYRQKPGSPPQLLIYDASSLESGVPSRFSGSGSGTEFTLTISTLRPEDFATYYCQQLHFYPHTFGGGTRVDVR
Consider B3, for which, in assay [1], the Kd was determined as 125 nM, the koff was found to be 0.0237 s⁻¹ and the kon amounted to 180000 M⁻¹ s⁻¹. In assay [2], this molecule came in with a Kd of 390 nM, a koff of 0.0189 s⁻¹ and a kon of 40000 M⁻¹ s⁻¹.

B4: wt 2F5 antibody (antibody, V domains shown)
VH: RITLKESGPPLVKPTQTLTLTCSFSGFSLSDFGVGVGWIRQPPGKALEWLAIIYSDDDKRYSPSLNTRLTITKDTSKNQVVLVMTRVSPVDTATYFCAHRRGPTTLFGVPIARGPVNAMDVWGQGITVTISS
VL: ALQLTQSPSSLSASVGDRITITCRASQGVTSALAWYRQKPGSPPQLLIYDASSLESGVPSRFSGSGSGTEFTLTISTLRPEDFATYYCQQLHFYPHTFGGGTRVDVR
notes: also called 2F5 Mab; Mab 2F5
In assay [4], B4 registered a Kd of 2.2 nM, a koff of 0.0007 s⁻¹ and a kon of 360000 M⁻¹ s⁻¹. In assay [5], this molecule gave a Kd of 3.1 nM, a koff of 0.0007 s⁻¹ and a kon of 230000 M⁻¹ s⁻¹.

B5: 2F5 CDRH3 length-altered variant e4 (antibody, V domains shown)
VH: RITLKESGPPLVKPTQTLTLTCSFSGFSLSDFGVGVGWIRQPPGKALEWLAIIYSDDDKRYSPSLNTRLTITKDTSKNQVVLVMTRVSPVDTATYFCAHRRGPTTGGLFGVGGPIARGPVNAMDVWGQGITVTISS
VL: ALQLTQSPSSLSASVGDRITITCRASQGVTSALAWYRQKPGSPPQLLIYDASSLESGVPSRFSGSGSGTEFTLTISTLRPEDFATYYCQQLHFYPHTFGGGTRVDVR
In assay [1], B5 had a Kd of 78.6 nM, a koff of 0.0104 s⁻¹ and a kon of 130000 M⁻¹ s⁻¹. Besides, in assay [2], the Kd is 239 nM, the koff is 0.0101 s⁻¹ and the kon worked out at 40000 M⁻¹ s⁻¹.

B6: 2F5 CDRH3 length-altered variant r4 (antibody, V domains shown)
VH: RITLKESGPPLVKPTQTLTLTCSFSGFSLSDFGVGVGWIRQPPGKALEWLAIIYSDDDKRYSPSLNTRLTITKDTSKNQVVLVMTRVSPVDTATYFCAHRRGPLFGVARGPVNAMDVWGQGITVTISS
VL: ALQLTQSPSSLSASVGDRITITCRASQGVTSALAWYRQKPGSPPQLLIYDASSLESGVPSRFSGSGSGTEFTLTISTLRPEDFATYYCQQLHFYPHTFGGGTRVDVR
Consider B6, for which, in assay [1], the Kd stood at 96.8 nM, the koff stood at 0.0105 s⁻¹ and the kon amounted to 100000 M⁻¹ s⁻¹. Besides, in assay [2], the Kd was determined as 382 nM, the koff turned out to be 0.0081 s⁻¹ and the kon amounted to 20000 M⁻¹ s⁻¹.

These data come from publication PMC3400562, “Structure-guided Alterations of the gp41-directed HIV-1 Broadly Neutralizing Antibody 2F5 Reveal New Properties Regarding its Neutralizing Function” (PLoS Pathogens, 2012).
